Source: doi:10.1101/2022.08.08.503151

Target: 80S ribosome (yeast) (S. cerevisiae (endogenous in TB50a)) (UniProt P14126)
Experiment: co-sedimentation

Chain of UniProt P14126 (P14126 whole entry, looked up): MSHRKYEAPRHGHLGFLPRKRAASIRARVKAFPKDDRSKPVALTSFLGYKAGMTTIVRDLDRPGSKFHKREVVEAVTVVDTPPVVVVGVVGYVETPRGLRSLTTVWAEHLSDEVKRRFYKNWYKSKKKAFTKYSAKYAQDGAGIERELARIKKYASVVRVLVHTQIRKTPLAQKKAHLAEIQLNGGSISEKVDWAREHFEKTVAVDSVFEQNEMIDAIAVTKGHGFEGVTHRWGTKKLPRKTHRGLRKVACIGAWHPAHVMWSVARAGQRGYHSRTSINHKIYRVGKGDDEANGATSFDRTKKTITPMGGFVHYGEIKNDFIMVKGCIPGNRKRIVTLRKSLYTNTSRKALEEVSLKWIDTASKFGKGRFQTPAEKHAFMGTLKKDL

fold accumulation in the 80S fraction, without CHX against CHX-treated: 3 fold
B1: Stm1 (suppressor of target of Myb protein 1) (natural protein)
chain: MSNPFDLLGNDVEDADVVVLPPKEIVKSNTSSKKADVPPPSADPSKARKNRPRPSGNEGAIRDKTAGRRNNRSKDVTDSATTKKSNTRRATDRHSRTGKTDTKKKVNQGWGDDKKELSAEKEAQADAAAEIAEDAAEAEDAGKPKTAQLSLQDYLNQQANNQFNKVPEAKKVELDAERIETAEKEAYVPATKVKNVKSKQLKTKEYLEFDATFVESNTRKNFGDRNNNSRNNFNNRRGGRGARKGNNTANATNSANTVQKNRNIDVSNLPSLA
